Here are results for two substances from patent publication US20100184190A1, “Influencing viral lipid constituents” (priority 2006, published 2010).

The data set has as its system chicken embryo kidney (CEK) cells. Description: FTIR microscopy of membrane phase transitions of treated CEK cell membranes. Type of data set: cell-based. To be noted: treated versus control. The text has this:
The hydrophobic pocket of cyclodexrins has the ability to sequester cholesterol from membranes. When membrane cholesterol content was reduced by cyclodextrin treatment, as compared to the control of FIG. 1A, lipid mobility was reduced and the lipids found more ordered, as shown in FIG. 1B.

With sphingomyelinase, the “change of membrane lipid order / melting groups (FTIR)” value is “significant reduction in the lower melting groups and a large increase in more ordered high melting membrane lipid groups”.
For the substance cyclodextrin, the “change of membrane lipid order / melting groups (FTIR)” value is “significant increase in about 45 °C melting lipid ordered groups”.
